From patent publication US9226969B2, “Salt form of a multi-arm polymer-drug conjugate” (priority 2009, dated 2016) come the findings set out here.

For data set [1] the following is noted: 40° C. and 75% relative humidity, over 3 months.
Protocol: Compositions containing varying amounts of protonated irinotecan, as well as differing in the amount of TFA versus HCl salt were examined.
Samples were taken and analyzed on a periodic basis over the course of the studies.
FIG. 2 and FIG. 3 show another set of data obtained from the sample containing >99% HCl salt (<1% free base, squares) and a sample consisting of 86% total salts (14% free base, diamonds) that were stored at 40° C. and 75% relative humidity. […] The increase in smaller PEG species is indicative of decomposition of the PEG backbone to provide multiple PEG species.
Data set [2] in a line: Aqueous hydrolysis at pH 10. The following applies: pH 10, 20° C., within 24 hours.
Protocol: (§1) Experiments were performed to determine the fate of the irinotecan-containing PEG species in 4-arm-PEG-Gly-Irino-20K mixed TFA.chloride salt under transesterification (K2CO3 in CH3OH, 20° C.) and aqueous hydrolysis (pH 10, 20° C.) conditions.
A short description of data set [3]: Transesterification of irinotecan-containing PEG species. The following applies: K2CO3 in CH3OH, 20° C., after 45 minutes.
Protocol: as §1

Where two headings read alike, the source gives them in different places. Bounds are passed on as bounds.

Regarding “Pentaerythritolyl-4-Arm-(PEG-1-Methylene-2Oxo-Vinylamino Acetate Linked-Irinotecan)-20K [listing 1 of 2 here]”, in data set [1], the “increase in free irinotecan (stability with respect to hydrolysis)” value is listed as “greater hydrolytic stability than either the free base or mixed TFA.hydrochloride salt”. Besides, the “increase in smaller PEG species (PEG backbone decomposition)” value is reported as “more prone to PEG backbone decomposition than the mixed salt sample containing 14% free base” in data set [1] (listed as HCl salt) and “greater degree of backbone degradation” in data set [1] (listed as hydrochloride salt). For the same substance, the free irinotecan runs as follows: (after 4 weeks at 40° C.) 1.25%; (initial value, before storage) 0.4%. Also, the “total product related species” value (after 4 weeks at 40° C.) is 97.0% and the “total product related species” value (initial value, before storage) was found to be 98.7%.
Take “Pentaerythritolyl-4-Arm-(PEG-1-Methylene-2Oxo-Vinylamino Acetate Linked-Irinotecan)-20K [listing 2 of 2 here]”: in data set [2], the “aqueous hydrolysis reaction completion” value is more than 99%. Further, in data set [3], the transesterification reaction completion was more than 99%.
